Measured values from the supplement of paper PMC10899765.

Columns and labels:
Conditions in all cases: 20 nM; 72 h
MCF10A [1] = test: 5+ nucleoli phenotype percent effect (relative to siNT 0% and siKIF11 100%); higher = more cells with five or more nucleoli
Experimental: (§1)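 After 72 h, cells were fixed and stained with Hoechst and anti-fibrillarin, and nucleoli per nucleus were counted with CellProfiler. Values are plate-adjusted percent effect for the one-nucleolus and 5+ nucleoli phenotypes, normalised to siNT (0%) and to the positive controls siNOL11 or siKIF11 (100%), as the mean of biological triplicates. Percent viability is the nuclei count relative to siNT.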

MCF10A [2] = test: one-nucleolus phenotype percent effect (relative to siNT 0% and siNOL11 100%); higher = more cells with one nucleolus (ribosome biogenesis inhibition)
Experimental: as §1

MCF10A [3] = test: percent viability (nuclei count relative to siNT); higher = more viable cells
Experimental: as §1

Row | Sequence | 5+ nucleoli phenotype percent effect (MCF10A [1]) [%] | one-nucleolus phenotype percent effect (MCF10A [2]) [%] | percent viability (MCF10A [3]) [%]
1 | UACAUGGAUGGAAACCUUCAAGC [hsa-miR-4802-3p] | -3.05 | -8.74 | 70.6
2 | UCGUACCGUGAGUAAUAAUGCG [hsa-miR-126-3p] | -0.677 | 5.16 | 30.2
3 | AGGGGUGCUAUCUGUGAUUGA [hsa-miR-342-5p] | -43.4 | 15.1 | 10.5
4 | UCACCUGAGCUCCCGUGCCUG [hsa-miR-3622b-3p] | 29.9 | -20.9 | 107
5 | AAAAGUAAUUGCGGAUUUUGCC [hsa-miR-548i] | 20.3 | -17.1 | 140
6 | AGUGGUUCUUAACAGUUCAACAGUU [hsa-miR-203a-5p] | 60.5 | -32.6 | 150
7 | UGUGACUUUAAGGGAAAUGGCG [hsa-miR-3164] | 22 | 19.5 | 22.9
8 | AAAAGUAAUUGCGAGUUUUACC [hsa-miR-548a-5p] | 9.73 | -20.8 | 172
9 | GUGUUCUCUGAUGGACAG [hsa-miR-4273] | 10.3 | -6.59 | 49.3
10 | GGCUUUCUAGUCUCAGCUCUCC [hsa-miR-3160-5p] | 38.5 | -16.4 | 110
11 | ACUGGCUAGGGAAAAUGAUUGGAU [hsa-miR-664a-5p] | 8.84 | 16.3 | 47.9
12 | CGGCUGGAGGUGUGAGGA [hsa-miR-3652] | -23.6 | 44.8 | 24
13 | UCAAAAUCAGGAGUCGGGGCUU [hsa-miR-8063] | 18.2 | -23.1 | 81.3
14 | UGAGGUGACCGCAGAUGGGAA [hsa-miR-7854-3p] | -6.86 | 29.8 | 14.8
15 | GCGACCCAUACUUGGUUUCAG [hsa-miR-551b-3p] | 23.7 | -14.5 | 111
16 | AAACCGUUACCAUUACUGAGUU [hsa-miR-451a] | 12.9 | -5.64 | 69.8
17 | GUCCUCCAGGCCAUGAGCUGCGG [hsa-miR-4691-5p] | 47.9 | -11.3 | 89.2
18 | UAGGACUAGAUGUUGGAAUUA [hsa-miR-4759] | 10.4 | -7.56 | 33.2
19 | CAACCUCGACGAUCUCCUCAGC [hsa-miR-3150a-5p] | 22.1 | -25.7 | 171
20 | ACCCUUUUUCUCUUUCCCAG [hsa-miR-6832-3p] | 38.2 | -12.4 | 76.6
21 | CACCUUUGUGUCCCCAUCCUGCA [hsa-miR-6782-3p] | 49.2 | -13.1 | 51.1
22 | UUGUGGGGUUGGAGAGCUGGCUG [hsa-miR-6796-5p] | -31.5 | 45.3 | 17.2
23 | UCUCACUGUAGCCUCGAACCCC [hsa-miR-1304-3p] | 22.9 | -27.3 | 44.7
24 | UUCACAGUGGCUAAGUUCUGC [hsa-miR-27b-3p] | -0.0856 | -13.3 | 128
25 | CUUCCGCCCCGCCGGGCGUCG [hsa-miR-718] | 30.6 | -13.8 | 69
26 | UAGGCCACAGCCACCCAUGUGU [hsa-miR-4717-5p] | -6.97 | -8.66 | 23.3
27 | AAGUCCUGCUUCUGUUGCAG [hsa-miR-6838-3p] | -28.6 | -6.74 | 56.4
28 | UGCCCUUCUCUCCUCCUGCCU [hsa-miR-6886-3p] | -2.46 | -6.37 | 35.2
29 | UAUCAUGGAGUUGGUAAAGCAC [hsa-miR-2681-3p] | 14.2 | -14.9 | 62.4
30 | UAAUCCUUGCUACCUGGGUGAGA [hsa-miR-500a-5p] | -16.1 | 19.3 | 55
